Here are results for two molecules from patent US20240199762A1 (PHILOGEN S P A, published 2024).

Experiment [1] has as its target T1, human FAP-ECD (extracellular domain) recombinant fragment containing a C-terminal His6 tag (human, UniProt Q12884 26-760, randomly biotinylated with NHS ester-activated biotin (as used on the SA chip and Streptawell plates)).
T1 construct: also called biotinylated human FAP-ECD; biotinylated human FAP
T1 sequence: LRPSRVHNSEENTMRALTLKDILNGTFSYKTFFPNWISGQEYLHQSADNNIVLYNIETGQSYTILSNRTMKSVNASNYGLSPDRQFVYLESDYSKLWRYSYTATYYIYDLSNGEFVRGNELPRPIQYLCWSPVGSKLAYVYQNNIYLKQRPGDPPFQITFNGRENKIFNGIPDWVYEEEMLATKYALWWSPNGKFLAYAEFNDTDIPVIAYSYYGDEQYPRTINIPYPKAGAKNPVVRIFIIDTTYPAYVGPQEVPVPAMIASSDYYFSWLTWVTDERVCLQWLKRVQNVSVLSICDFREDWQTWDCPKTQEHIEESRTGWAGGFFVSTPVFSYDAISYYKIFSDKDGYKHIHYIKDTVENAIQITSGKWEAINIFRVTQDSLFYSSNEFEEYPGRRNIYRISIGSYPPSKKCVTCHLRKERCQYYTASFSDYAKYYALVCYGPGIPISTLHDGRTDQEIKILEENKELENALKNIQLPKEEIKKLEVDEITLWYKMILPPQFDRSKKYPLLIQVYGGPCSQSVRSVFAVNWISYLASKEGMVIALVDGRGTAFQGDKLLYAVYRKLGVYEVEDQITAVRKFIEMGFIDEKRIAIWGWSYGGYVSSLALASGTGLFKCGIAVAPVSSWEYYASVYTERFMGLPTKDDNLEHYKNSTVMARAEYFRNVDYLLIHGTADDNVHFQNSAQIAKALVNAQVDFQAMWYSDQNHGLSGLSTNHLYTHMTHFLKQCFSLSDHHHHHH
In words: SPR, BIAcore X100, biotinylated human FAP-ECD on SA chip (1500 RU), monomeric scFv injected. As to the method:
Affinity measurements of the C5 and 7NP2 scFv antibodies were performed by Surface Plasmon Resonance using BIAcore X100 instrument with a biotinylated human FAP-ECD coated SA chip. A final coating of 1500 RU was achieved.
Samples were injected at a concentration of […], 450 nM and 225 nM for the C5 scFv and of 1350 nM, 675 nM, 338 nM and 170 nM for the 7NP2 scFv. No regeneration of the SA chip was performed between each run, scFvs were left to detach from the antigen. KD measurements were assessed using the BIAevaluation 3.2 software.
On the technique in general: SPR reads the build-up and loss of mass on a sensor chip optically.

The target in experiment [2] is T2, human FAP expressed on transduced cells (SKRC52-hFAP, HT-1080-hFAP) (human, UniProt Q12884 1-760).
T2 construct: whole, on cells; Also the target in SKRC52-hFAP tumor cryosections and in tumors of tumor-bearing mice; also called cell-expressed human FAP
T2 sequence (looked up): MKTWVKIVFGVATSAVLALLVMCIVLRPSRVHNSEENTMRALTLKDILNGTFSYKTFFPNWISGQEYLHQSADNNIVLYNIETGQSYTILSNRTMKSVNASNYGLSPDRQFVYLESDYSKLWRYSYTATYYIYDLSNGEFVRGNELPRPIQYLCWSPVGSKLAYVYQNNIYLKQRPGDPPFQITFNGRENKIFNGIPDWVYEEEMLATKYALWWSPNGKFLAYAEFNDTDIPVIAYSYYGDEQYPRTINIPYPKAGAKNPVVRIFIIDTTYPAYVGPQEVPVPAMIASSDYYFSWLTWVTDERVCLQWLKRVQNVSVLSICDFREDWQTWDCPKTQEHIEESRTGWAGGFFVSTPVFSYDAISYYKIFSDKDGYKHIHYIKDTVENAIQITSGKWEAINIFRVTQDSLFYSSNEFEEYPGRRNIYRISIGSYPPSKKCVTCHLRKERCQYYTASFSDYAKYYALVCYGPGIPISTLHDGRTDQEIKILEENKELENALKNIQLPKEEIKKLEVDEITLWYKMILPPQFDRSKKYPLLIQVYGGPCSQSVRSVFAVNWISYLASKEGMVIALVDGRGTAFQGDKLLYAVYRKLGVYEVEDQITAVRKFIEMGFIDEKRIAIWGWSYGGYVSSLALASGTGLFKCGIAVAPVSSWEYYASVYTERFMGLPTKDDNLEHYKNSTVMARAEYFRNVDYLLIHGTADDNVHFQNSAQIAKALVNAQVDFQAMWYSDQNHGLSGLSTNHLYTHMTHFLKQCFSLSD
In words: flow cytometry on HT-1080-hFAP and SKRC52-hFAP cells against wild-type cells. As to the method:
The cell lines used were the human renal cell carcinoma cell line SKRC52 and the human fibrosarcoma cell line HT-1080.
Specifically, SKRC52-hFAP, SKRC52 wild-type (wt), HT-1080-hFAP and HT-1080 wt cells were detached from cell culture plates using Accutase, counted and suspended to a final concentration of 1×10⁶ cells/mL in FACS buffer (0.5% BSA, 2 mM EDTA in PBS). Cells were incubated with the 7NP2 or KSF antibodies in SIP format and binding detected using an […] (25 μg/ml), followed by staining with the anti-rat AlexaFluor488 antibody. Cells were analyzed on a CytoFLEX cytometer (Beckman Coulter). The raw data were processed using the FlowJo 10.4 software.
A general note: In flow cytometry, cells or beads pass a laser one at a time.

The Kd is the equilibrium constant for the complex coming apart.

B1: affinity-matured anti-FAP antibody 7NP2 in scFv format (scFv)
scFv: EVQLLESGGGLVQPGGSLRLSCAASGFTFSSYAMSWVRQAPGKGLEWVSAIGSVGGPTYYADSVKGRFTISRDNSKNTLYLQMNSLRAEDTAVYYCAKRLAWFDYWGQGTLVTVSSGGGGSGGGGSGGGGEIVLTQSPGTLSLSPGERATLSCRASQSVSSSYLAWYQQKPGQAPRLLIYGASSRATGIPDRFSGSGSGTDFTLTISRLEPEDFAVYYCQQSGKGPLTFGQGTKVEIK
notes: The monomeric scFv was used in BIAcore; also called 7NP2 scFv; scFv(7NP2)
Regarding B1, the Kd in experiment [1] came to 10 nM.

B2: anti-FAP antibody 7NP2 in SIP (small immunoprotein) format (other)
chain: EVQLLESGGGLVQPGGSLRLSCAASGFTFSSYAMSWVRQAPGKGLEWVSAIGSVGGPTYYADSVKGRFTISRDNSKNTLYLQMNSLRAEDTAVYYCAKRLAWFDYWGQGTLVTVSSGGGGSGGGGSGGGGEIVLTQSPGTLSLSPGERATLSCRASQSVSSSYLAWYQQKPGQAPRLLIYGASSRATGIPDRFSGSGSGTDFTLTISRLEPEDFAVYYCQQSGKGPLTFGQGTKVEIKSGGSGGPRAAPEVYAFATPEWPGSRDKRTLACLIQNFMPEDISVQWLHNEVQLPDARHSTTQPRKTKGSGFFVFSRLEVTRAEWEQKDEFICRAVHEAASPSQTVQRAVSVNPESSRRGGC
notes: Homodimeric mini-immunoglobulin: 77 kDa under non-reducing and 38 kDa under reducing conditions; also called 7NP2 SIP; 7NP2(SIP)
In the case of B2, in experiment [2], the binding result is listed as “binds”.
